Results on one molecule are retold here after paper doi:10.1101/2023.07.25.550481.

In the data set the target is T1, ZBTB48 ZnF10-11-C (Homo sapiens, UniProt P10074 548-620).
T1 sequence: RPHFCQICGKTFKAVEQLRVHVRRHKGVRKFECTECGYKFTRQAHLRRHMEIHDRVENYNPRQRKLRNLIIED
As to the kind of experiment: crystal structure.

B1: CIITA e.2 crystal duplex (dsDNA)
DNA 1: CACAAGTGAGGGATCA
DNA 2: GTGATCCCTCACTTGT
Consider B1, for which the binding result is listed as “binds”.
